From patent publication US6645733B1, “Fluorescent intensity method for assaying binding between proteins or peptides” (Ingeneus Corporation, priority 1999, dated 2003) come the findings set out here.

For the assay, the target named is T1, human AT1 receptor (Homo sapiens, UniProt P30556).
T1 construct: purchased NEN Life Science Products Inc., Boston, Mass; host or cells: Chinese hamster ovary (CHO) cells, purified membrane preparation
T1 sequence (P30556 1-359): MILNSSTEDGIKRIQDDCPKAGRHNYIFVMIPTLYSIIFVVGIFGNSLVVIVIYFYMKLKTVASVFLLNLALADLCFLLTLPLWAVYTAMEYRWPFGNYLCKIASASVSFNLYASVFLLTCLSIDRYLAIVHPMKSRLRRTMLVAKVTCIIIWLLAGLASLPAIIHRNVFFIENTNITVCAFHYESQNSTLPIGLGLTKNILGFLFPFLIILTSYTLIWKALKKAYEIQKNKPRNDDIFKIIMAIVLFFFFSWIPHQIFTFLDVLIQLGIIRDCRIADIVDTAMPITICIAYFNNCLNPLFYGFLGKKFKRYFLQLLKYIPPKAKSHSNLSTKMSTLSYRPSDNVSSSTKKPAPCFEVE
Description: Competition binding experiment: displacement of wildtype Flu-AII from AT1 receptor by unlabeled ligand. The settings on record: all twelve concentrations 1 nM to 300 μM, 10 nM Flu-AII, 0.02 units AT1 receptor (data not shown).

No end group written: not given here.

MLGFFQQPKPR [substance P]: the “displacement of Flu-AII binding to AT1 receptor” value is reported as “unable to displace”.
